# Test system: AncSZ
# Assay: phosphorylation enrichment, bacterial display (enrichment ratio); higher = better substrate or ligand; peptides without Tyr show the background
# 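Note: 11-residue human phosphosite peptides and single-mutation variants displayed on the E. coli surface, counted by deep sequencing, each peptide's frequency after selection divided by its frequency in the unselected input library; frequency after pTyr selection over input frequency; kinase dosed for 20-30% of maximal phosphorylation in three min.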
row,Sequence,phosphorylation enrichment
1,PVQAAYQKVVD [HBB_Y131_A136D],0.831
2,GEIQEYGAPSD [ABCC1_Y1508],1.07
3,KRIETYFSKNY [PLP1_Y50_L46R],0.658
4,LRTAVYHEILI [CREBBP_Y1450],3.59
5,GGDGSYVSVPL [TNNI3K_Y425_S430L],0.692
6,ADRARYSAFGG [RBM4_Y361],0.5
7,FQKDVYDIPPS [NEDD9_Y177_YF],1.01
8,GEDEPYAEPYA [APBA1_Y183_S184A],1.59
9,FSQQTYCRVSN [ABCD1_Y180_Y181C],0.875
10,TRSYKYLLLSM [NF1_Y491],0.833
11,MSNSAYVKREV [SCN1A_Y1694_F1692S],0.563
12,EIEFLYNENTV [IARS1_Y680],1.35
13,AIKSFYAALID [RYR1_Y2426_M2423K],0.882
14,IVRSLYEDPED [VHL_Y185_L188P],1.12
15,TEFIQYMRRKN [MAX_Y73_YF],0.701
16,NSAFFYKTAEE [CCT6B_Y250_G247A],0.962
17,SYCYRYCCAAR [SUMF1_Y344_R345C],0.968

row,Sequence,phosphorylation enrichment
1,TLSGIYQFNIA [FOXL2_Y81_I84N_YF],0.891
2,NDFGNYNQQPS [HNRNPA2B1_Y306],0.764
3,VKYLGYPPPEI [KDR_Y357_A352V],0.7
4,DFGSGYPNDPK [RNASEH2A_Y210_YF],0.778
5,PGVNYYFRVSA,1.11
6,SWSTSYSGYRY [NKAPL_Y91],0.825
7,QTPVLYTMLDH [MPZ_Y220_A221T],0.896
8,LAARFYNWVSF [FLT4_Y1231_YF],1.44
9,ATARPYRPFII [LRP5_Y1528_YF],0.465
10,VGTKRYVAPEV [ACVRL1_Y375_M376V],0.61
11,SVNCTYSPALN [TP53_Y126_T123N],0.957
12,EHLNRYINDTF [TTLL10_Y446_S448N],0.853
13,EIIPFYGMSTY [FNDC3B_Y175],0.751
14,GVTLLCFGRFN [ADGRD1_Y85_Y85C_YF],1.14
15,FKDGQYWIRGQ [ACSF3_Y466_R471Q],0.831
16,QRRLVYFERGA [RYR1_Y245_G248R_YF],0.847

# Test system: Fer (mouse)
# Assay: as above
row,Sequence,phosphorylation enrichment
1,PVQAAYQKVVD [HBB_Y131_A136D],0.384
2,GEIQEYGAPSD [ABCC1_Y1508],0.481
3,KRIETYFSKNY [PLP1_Y50_L46R],0.377
4,LRTAVYHEILI [CREBBP_Y1450],14.4
5,GGDGSYVSVPL [TNNI3K_Y425_S430L],0.486
6,ADRARYSAFGG [RBM4_Y361],0.424
7,FQKDVYDIPPS [NEDD9_Y177_YF],0.502
8,GEDEPYAEPYA [APBA1_Y183_S184A],0.525
9,FSQQTYCRVSN [ABCD1_Y180_Y181C],0.558
10,TRSYKYLLLSM [NF1_Y491],0.434
11,MSNSAYVKREV [SCN1A_Y1694_F1692S],0.37
12,EIEFLYNENTV [IARS1_Y680],0.632
13,AIKSFYAALID [RYR1_Y2426_M2423K],0.479
14,IVRSLYEDPED [VHL_Y185_L188P],0.738
15,TEFIQYMRRKN [MAX_Y73_YF],0.51
16,NSAFFYKTAEE [CCT6B_Y250_G247A],0.47
17,SYCYRYCCAAR [SUMF1_Y344_R345C],0.457

row,Sequence,phosphorylation enrichment
1,TLSGIYQFNIA [FOXL2_Y81_I84N_YF],7.33
2,NDFGNYNQQPS [HNRNPA2B1_Y306],0.472
3,VKYLGYPPPEI [KDR_Y357_A352V],0.37
4,DFGSGYPNDPK [RNASEH2A_Y210_YF],0.39
5,PGVNYYFRVSA,0.466
6,SWSTSYSGYRY [NKAPL_Y91],0.591
7,QTPVLYTMLDH [MPZ_Y220_A221T],10.7
8,LAARFYNWVSF [FLT4_Y1231_YF],2.55
9,ATARPYRPFII [LRP5_Y1528_YF],0.406
10,VGTKRYVAPEV [ACVRL1_Y375_M376V],0.474
11,SVNCTYSPALN [TP53_Y126_T123N],0.521
12,EHLNRYINDTF [TTLL10_Y446_S448N],0.53
13,EIIPFYGMSTY [FNDC3B_Y175],0.88
14,GVTLLCFGRFN [ADGRD1_Y85_Y85C_YF],0.498
15,FKDGQYWIRGQ [ACSF3_Y466_R471Q],0.32
16,QRRLVYFERGA [RYR1_Y245_G248R_YF],0.586

# Test system: c-Src
# Assay: as above
row,Sequence,phosphorylation enrichment
1,PVQAAYQKVVD [HBB_Y131_A136D],0.458
2,GEIQEYGAPSD [ABCC1_Y1508],0.438
3,KRIETYFSKNY [PLP1_Y50_L46R],0.384
4,LRTAVYHEILI [CREBBP_Y1450],12.5
5,GGDGSYVSVPL [TNNI3K_Y425_S430L],0.38
6,ADRARYSAFGG [RBM4_Y361],0.397
7,FQKDVYDIPPS [NEDD9_Y177_YF],2.62
8,GEDEPYAEPYA [APBA1_Y183_S184A],0.639
9,FSQQTYCRVSN [ABCD1_Y180_Y181C],0.881
10,TRSYKYLLLSM [NF1_Y491],0.494
11,MSNSAYVKREV [SCN1A_Y1694_F1692S],0.335
12,EIEFLYNENTV [IARS1_Y680],0.557
13,AIKSFYAALID [RYR1_Y2426_M2423K],0.481
14,IVRSLYEDPED [VHL_Y185_L188P],0.586
15,TEFIQYMRRKN [MAX_Y73_YF],0.521
16,NSAFFYKTAEE [CCT6B_Y250_G247A],0.38
17,SYCYRYCCAAR [SUMF1_Y344_R345C],0.369

row,Sequence,phosphorylation enrichment
1,TLSGIYQFNIA [FOXL2_Y81_I84N_YF],4.73
2,NDFGNYNQQPS [HNRNPA2B1_Y306],0.505
3,VKYLGYPPPEI [KDR_Y357_A352V],0.403
4,DFGSGYPNDPK [RNASEH2A_Y210_YF],0.464
5,PGVNYYFRVSA,0.331
6,SWSTSYSGYRY [NKAPL_Y91],1.7
7,QTPVLYTMLDH [MPZ_Y220_A221T],3
8,LAARFYNWVSF [FLT4_Y1231_YF],0.82
9,ATARPYRPFII [LRP5_Y1528_YF],0.389
10,VGTKRYVAPEV [ACVRL1_Y375_M376V],0.458
11,SVNCTYSPALN [TP53_Y126_T123N],0.849
12,EHLNRYINDTF [TTLL10_Y446_S448N],0.517
13,EIIPFYGMSTY [FNDC3B_Y175],0.902
14,GVTLLCFGRFN [ADGRD1_Y85_Y85C_YF],0.388
15,FKDGQYWIRGQ [ACSF3_Y466_R471Q],0.426
16,QRRLVYFERGA [RYR1_Y245_G248R_YF],0.569

# Molecular target: EPHB2 (UniProt P29323)
# Assay: as above
# Sequence of EPHB2 (P29323 whole entry, looked up): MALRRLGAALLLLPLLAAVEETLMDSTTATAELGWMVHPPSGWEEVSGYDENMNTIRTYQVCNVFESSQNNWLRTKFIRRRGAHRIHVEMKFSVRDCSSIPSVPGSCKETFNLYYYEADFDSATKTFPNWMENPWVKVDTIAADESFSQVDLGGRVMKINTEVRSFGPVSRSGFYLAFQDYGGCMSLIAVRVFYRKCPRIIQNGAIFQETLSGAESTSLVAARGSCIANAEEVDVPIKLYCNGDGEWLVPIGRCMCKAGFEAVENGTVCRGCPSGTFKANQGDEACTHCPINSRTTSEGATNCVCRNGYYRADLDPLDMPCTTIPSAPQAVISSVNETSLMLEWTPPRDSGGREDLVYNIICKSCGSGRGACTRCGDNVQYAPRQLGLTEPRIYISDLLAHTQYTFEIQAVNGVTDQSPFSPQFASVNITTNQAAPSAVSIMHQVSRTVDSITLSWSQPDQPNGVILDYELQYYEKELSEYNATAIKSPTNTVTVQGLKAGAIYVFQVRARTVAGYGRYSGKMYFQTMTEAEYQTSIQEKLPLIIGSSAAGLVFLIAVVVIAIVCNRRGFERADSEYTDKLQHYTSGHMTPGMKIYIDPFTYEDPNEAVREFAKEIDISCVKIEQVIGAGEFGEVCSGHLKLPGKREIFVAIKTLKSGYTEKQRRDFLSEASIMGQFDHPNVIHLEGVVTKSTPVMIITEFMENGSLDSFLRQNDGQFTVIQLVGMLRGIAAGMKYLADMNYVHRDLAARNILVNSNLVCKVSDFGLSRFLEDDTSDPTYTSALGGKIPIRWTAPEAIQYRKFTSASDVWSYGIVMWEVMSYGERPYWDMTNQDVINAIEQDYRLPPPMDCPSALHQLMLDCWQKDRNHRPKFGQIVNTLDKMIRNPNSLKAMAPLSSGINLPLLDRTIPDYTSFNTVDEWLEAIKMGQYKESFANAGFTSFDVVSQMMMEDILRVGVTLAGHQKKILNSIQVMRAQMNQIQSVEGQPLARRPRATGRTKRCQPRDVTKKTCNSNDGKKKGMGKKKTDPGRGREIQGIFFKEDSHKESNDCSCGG
row,Sequence,phosphorylation enrichment
1,PVQAAYQKVVD [HBB_Y131_A136D],1.06
2,GEIQEYGAPSD [ABCC1_Y1508],0.544
3,KRIETYFSKNY [PLP1_Y50_L46R],0.365
4,LRTAVYHEILI [CREBBP_Y1450],1.85
5,GGDGSYVSVPL [TNNI3K_Y425_S430L],0.509
6,ADRARYSAFGG [RBM4_Y361],0.303
7,FQKDVYDIPPS [NEDD9_Y177_YF],2.01
8,GEDEPYAEPYA [APBA1_Y183_S184A],0.694
9,FSQQTYCRVSN [ABCD1_Y180_Y181C],2.1
10,TRSYKYLLLSM [NF1_Y491],0.69
11,MSNSAYVKREV [SCN1A_Y1694_F1692S],0.415
12,EIEFLYNENTV [IARS1_Y680],0.584
13,AIKSFYAALID [RYR1_Y2426_M2423K],1.23
14,IVRSLYEDPED [VHL_Y185_L188P],0.698
15,TEFIQYMRRKN [MAX_Y73_YF],0.732
16,NSAFFYKTAEE [CCT6B_Y250_G247A],0.472
17,SYCYRYCCAAR [SUMF1_Y344_R345C],0.553

row,Sequence,phosphorylation enrichment
1,TLSGIYQFNIA [FOXL2_Y81_I84N_YF],0.555
2,NDFGNYNQQPS [HNRNPA2B1_Y306],0.604
3,VKYLGYPPPEI [KDR_Y357_A352V],0.491
4,DFGSGYPNDPK [RNASEH2A_Y210_YF],0.469
5,PGVNYYFRVSA,0.706
6,SWSTSYSGYRY [NKAPL_Y91],0.619
7,QTPVLYTMLDH [MPZ_Y220_A221T],1.78
8,LAARFYNWVSF [FLT4_Y1231_YF],0.605
9,ATARPYRPFII [LRP5_Y1528_YF],0.469
10,VGTKRYVAPEV [ACVRL1_Y375_M376V],0.444
11,SVNCTYSPALN [TP53_Y126_T123N],0.613
12,EHLNRYINDTF [TTLL10_Y446_S448N],0.608
13,EIIPFYGMSTY [FNDC3B_Y175],0.681
14,GVTLLCFGRFN [ADGRD1_Y85_Y85C_YF],0.669
15,FKDGQYWIRGQ [ACSF3_Y466_R471Q],0.598
16,QRRLVYFERGA [RYR1_Y245_G248R_YF],0.79
